Source: US12258584B2, “Methods and systems for converting precursor cells into intestinal tissues through directed differentiation” (Children's Hospital Medical Center, priority 2010, dated 2025)

Legend:
[1] = system: hESCs and iPSCs; experiment: Definitive endoderm induction, SOX17/FOXA2 immunofluorescence; format: cell-based, human; settings: ActivinA 100 ng/ml for 3 days
Protocol: Differentiation of PSCs into Definitive Endoderm (DE). Differentiation into Definitive Endoderm was carried out as previously described. Briefly, a 3 day ActivinA (R&D systems) differentiation protocol was used. Cells were treated with ActivinA (100 ng/ml) for three consecutive days in RPMI 1640 media (Invitrogen) with increasing concentrations of 0%, 0.2%, 2% HyClone defined FBS (dFBS) (Thermo Scientific).
Directing Hindgut Development of PSCs. As a first step to generating intestinal tissue, nodal-related TGFβ molecule activinA was used to promote differentiation of PSCs into DE as previously published. […]
FIGS. 6a and 6b illustrate exemplary embodiments in accordance with the present invention, depicting characterization of DE formation from hESC and iPSC lines by immuno-fluorescence (IF) and Microarray analysis. […] (b) Transcriptional profile of DE induction. hESC-H9 and iPSC lines 3.5, 3.6 and 3.12 were analyzed before and after DE formation (activin differentiation) by Affymetrix DNA microarray analysis.
Tissues were fixed for 1 hour to overnight in 4% paraformaldehyde or 3% glutaraldehyde for transmission electron microscopy (TEM). […] Slides were washed and mounted using Fluormount-G. Confocal images were captured on a Zeiss LSM510 and Z-stacks were analyzed and assembled using AxioVision software. […]

[2] = system: H9-HES cells differentiated into definitive endoderm; experiment: Posteriorization of definitive endoderm: foregut (ALB, PDX1) and hindgut (CDX2) marker expression by RT-qPCR and immunofluorescence; format: cell-based, human
Protocol: Differentiation of DE in Permissive Media (Differentiation Protocol for FIG. 1). After differentiation into definitive endoderm, cells were incubated in DMEM/F12 plus 2% defined fetal bovine serum (dFBS) with either 0, 50, or 500 ng/ml of FGF4 and/or 0, 50, or 500 ng/ml of Wnt3a (R&D Systems) for 6, 48, or 96 hours. Cultures were then grown in permissive media consisting of DMEM plus 10% fetal bovine serum (FBS) for an additional 7 days.
FIGS. 1a through 1d illustrate exemplary embodiments of the present invention. FGF4 and Wnt3a act synergistically in a temporal and dose-dependent manner to specify stable posterior endoderm fate. ActivinA (100 ng/ml) was used to differentiate H9-HES cells into definitive endoderm (DE). DE was treated with the posteriorizing factors FGF4 (50, 500 ng), Wnt3a (50, 500 ng) or both for 6, 48 or 96 hours. Cells were then cultured in a permissive medium without growth factors for an additional seven days and analyzed for expression of foregut markers (ALB, PDX1) and the hindgut marker (CDX2) by RT-qPCR (a) and immunofluorescence (b-d). FGF4/Wnt-mediated changes in marker expression in (a) is relative to 3-day activin treated DE cultures that were grown for identical lengths of time in the absence of FGF4 or Wnt3a (control). […] Error bars denote standard deviation of triplicates. Significance is shown by; * (p<0.05), ^ (p<0.001), # (p<0.0001).
FIGS. 7a and 7b illustrate exemplary embodiments in accordance with the present invention, depicting time and concentration dependent induction of CDX2 by FGF4 and Wnt3a. (a) FGF4 and Wnt3a up-regulate CDX2 in a concentration dependant manner. 3-day ActivinA treated hESCs were treated for 48 hours with Wnt3a at 50 ng/ml or 500 ng/ml or FGF4 at 50 ng/ml or 500 ng/ml, or increasing concentrations of FGF4+Wnt3a. Cells were analyzed after 48 hours of treatment. […] CDX2 expression was normalized to the internal control beta-tubulin, and is shown relative to a 48 hour control cultured in the absence of growth factors. (b) FGF4 and Wnt3a up-regulate CDX2 in a time dependant manner. 48 hours of exposure to FGF4+Wnt3a was required for the most robust induction of CDX2. All time points shown are set relative to a 0 hour no growth factor control. 500 ng/ml of FGF4, Wnt3a or FGF4+Wnt3a was used for all time points. Note that 24 hour and 48 controls, in the absence of growth factors, show a significant and spontaneous up-regulation of CDX2. Error bars denote standard deviation of triplicates. Significance is shown by; * (p<0.05)
RNA was isolated using the Nucleospin II RNA isolation kit (Clonetech). […] Finally, qPCR was carried out using Quantitect SybrGreen MasterMix (Qiagen) on a Chromo4 Real-Time PCR (BioRad). […]

[3] = system: definitive endoderm from human embryonic and induced pluripotent stem cells; experiment: Foregut/hindgut patterning of definitive endoderm by WNT, FGF, BMP and RA signaling (Cdx2, Sox2, HHex, Cerberus expression); format: cell-based
Protocol: Following definitive endoderm (DE) induction with activin (100 ng/ml) for 3 days, a 2-4 day treatment was performed with the indicated combination of factors: Wnt3a (500 ng/ml) and Fgf4 (500 ng/ml), Retinoic acid (RA) in a range of 0.2-20 μM the BMP antagonist Noggin (50 ng/ml), the WNT antagonist […] (1-500 ng/ml).
In particular, FIGS. 14B and 14D depict the activation of FGF/WNT/BMP signaling promotes posterior/hindgut fate as indicated by expression of Cdx2. […] Activation of FGF/WNT/BMP signaling represses foregut fate as indicated by expression of Sox2 (FIG. 14C).
The effects of Retinoic Acid in promoting hindgut differentiation in a BMP dependent manner (FIGS. 15A-15D). […] Similar comparison was also performed by immunostaining (FIGS. 15C and 15D). Activation of RA signaling promotes posterior/hindgut fate as indicated by expression of Cdx2 and represses foregut fate as indicated by expression of Sox2. Immunostaining in FIG. 15C is quantified in FIG. 15D using an automated cell counting program.

[4] = system: intestinal organoids; experiment: Intestinal regionalization of hindgut spheroids in 3D matrigel culture with BMP or noggin; format: cell-based, human; settings: added after the hindgut stage to EGF/Rspondid1 containing media; organoids analyzed after 28 days
Protocol: For investigating the impact of BMP signaling on intestinal regionalization after hindgut formation, hindgut spheroids were plated in matrigel and BMP or noggin were added to EGF/Rspondid1 containing media. Intestinal organoids were analyzed after 28 days.

Molecule	cells co-expressing the DE markers SOX17 and FOXA2 [1]	cells co-expressing the DE markers SOX17 and FOXA2 ([1]; listed as Activin)	competence of DE cultures to form foregut and hindgut lineages ([2]; activinA for only 3-days, then seven days in permissive conditions)	competence of DE cultures to form foregut and hindgut lineages ([2]; prolonged activin treatment for 4-5 days)	Wnt/Fgf-induced Cdx2 expression ([3]; Noggin 50 ng/ml with Wnt3a 500 ng/ml and Fgf4 500 ng/ml, 2-4 day treatment after DE induction)	Retinoic acid (RA)-induced posteriorization, Cdx2 expression ([3]; addition of Noggin to Retinoic acid treatment)	hindgut and foregut fate (Cdx2, Sox2 expression) ([3]; repression of BMP signaling with noggin)	regional intestinal fate [4]
ActivinA: nodal-related TGFβ molecule (R&D systems) used to differentiate PSCs into definitive endoderm (protein, UniProt P08476 311-426, looked up) Inhibin beta A chain: GLECDGKVNICCKKQFFVSFKDIGWNDWIIAPSGYHANYCEGECPSHIAGTSGSSLSFHSTVINHYRMRGHSPFANLKSCCVPTKLRPMSMLYYDDGQNIIKKDIQNMIVEECGCS	80-90%	up to 90%	competent to develop into both foregut (Albumin+ and Pdx1+) and hindgut (Cdx2) lineages	intrinsically anterior in character and not as competent to form posterior lineages	–	–	–	–
Noggin: the BMP antagonist Noggin (R&D Systems) (protein, UniProt Q13253 28-232, looked up) Noggin: QHYLHIRPAPSDNLPLVDLIEHPDPIFDPKEKDLNETLLRSLLGGHYDPGFMATSPPEDRPGGGGGAAGGAEDLAELDQLLRQRPSGAMPSEIKGLEFSEGLAQGKKQRLSKKLRRKLQMWLWSQTFCPVLYAWNDLGSRFWPRYVKVGSCFSKRSCSVPEGMVCKPSKSVHLTVLRWRCQRRGGQRCGWIPIQYPIISECKCSC	–	–	–	–	completely abolishes the Wnt/Fgf-induced Cdx2 expression	potently inhibits Cdx2 expression	suppresses hindgut fate and promotes foregut fate	promotes a proximal intestinal fate (duodenum/jejunum)
